Laboratory results taken from the supplement of paper PMC7125110.
± gives the standard error. For part of these data: Variants at the floor of the assay were thinned out.

B1: glmS ribozyme (parent)
chain: AUAAAAGCGCCAGAACUACAGAAAUGUAGUUGACGAGGAGGAGGUUUAUCGAAUUUUCGGCGGAUGCCUCCAAA

Assays:
Conditions in all cases: with glucosamine-6-phosphate
glucosamine-6-phosphate [1] = variants of: B1; assay: kcat; higher = faster cleavage; RNA array
Outline: (§1)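 Weighted Michaelis–Menten fits across concentrations supplied kcat and KM, based on kobs from one- or two-exponential decay fits to normalised per-tile medians. The data came from barcoded ribozyme variants transcribed in situ by E. coli RNA polymerase on sequenced MiSeq chips and tracked at 37 °C by a hybridised Cy3 probe. Glucosamine-6-phosphate (40 μM to 10 mM) in HEPES/KCl/Mg(OAc)2 buffer was flowed in.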

glucosamine-6-phosphate [2] = variants of: B1; assay: KM; higher = weaker cofactor use; RNA array
Outline: as §1

glucosamine-6-phosphate [3] = variants of: B1; assay: self-cleavage kobs at 40 uM GlcN6P; higher = faster cleavage; RNA array
Outline: as §1

glucosamine-6-phosphate [4] = variants of: B1; assay: self-cleavage kobs at 160 uM GlcN6P; higher = faster cleavage; RNA array
Outline: as §1

glucosamine-6-phosphate [5] = variants of: B1; assay: self-cleavage kobs at 640 uM GlcN6P; higher = faster cleavage; RNA array
Outline: as §1

glucosamine-6-phosphate [6] = variants of: B1; assay: self-cleavage kobs at 2500 uM GlcN6P; higher = faster cleavage; RNA array
Outline: as §1

glucosamine-6-phosphate [7] = variants of: B1; assay: self-cleavage kobs at 10000 uM GlcN6P; higher = faster cleavage; RNA array
Outline: as §1

Variant | kcat (glucosamine-6-phosphate [1]) | KM (glucosamine-6-phosphate [2]) | self-cleavage kobs at 40 uM GlcN6P (glucosamine-6-phosphate [3]) | self-cleavage kobs at 160 uM GlcN6P (glucosamine-6-phosphate [4]) | self-cleavage kobs at 640 uM GlcN6P (glucosamine-6-phosphate [5]) | self-cleavage kobs at 2500 uM GlcN6P (glucosamine-6-phosphate [6]) | self-cleavage kobs at 10000 uM GlcN6P (glucosamine-6-phosphate [7])
G44U C67G | 0.0189 ± 0.0043 s⁻¹ | 1120 ± 340 µM | 0.00061 ± 6.9e-05 s⁻¹ | 0.00226 ± 0.0003 s⁻¹ | 0.00865 ± 0.0011 s⁻¹ | 0.023 ± 0.0048 s⁻¹ | 0.0148 ± 0.0022 s⁻¹
G44A U45C | 0.000855 ± 6.9e-05 s⁻¹ | 2540 ± 420 µM | – | 4.01e-05 ± 1.9e-05 s⁻¹ | 0.000171 ± 2.7e-05 s⁻¹ | 0.000496 ± 0.00011 s⁻¹ | 0.000674 ± 6.5e-05 s⁻¹
G44A U45A | 0.00079 ± 0.0001 s⁻¹ | 3190 ± 750 µM | – | – | 0.000128 ± 4.2e-05 s⁻¹ | 0.000439 ± 0.00012 s⁻¹ | 0.000579 ± 0.0001 s⁻¹
G43U A73U | 4.34e-05 ± 8.8e-06 s⁻¹ | – | – | – | – | 4.73e-05 ± 2.1e-05 s⁻¹ | 3.88e-05 ± 1e-05 s⁻¹
G41U U46G | 0.00077 ± 0.00021 s⁻¹ | 1560 ± 690 µM | – | 8.6e-05 ± 2.2e-05 s⁻¹ | 0.000197 ± 4.2e-05 s⁻¹ | 0.000433 ± 0.00011 s⁻¹ | 0.000804 ± 0.00021 s⁻¹
A42U C71A | 0.000146 ± 7.1e-05 s⁻¹ | – | – | – | – | 3.16e-05 ± 8.6e-06 s⁻¹ | 8.25e-05 ± 2.2e-05 s⁻¹
A42U A64G | 0.000148 ± 1.7e-05 s⁻¹ | 1930 ± 650 µM | – | – | 3.08e-05 ± 7.7e-06 s⁻¹ | 0.000102 ± 1.3e-05 s⁻¹ | 0.00012 ± 1.1e-05 s⁻¹
G40U U69G | < 1e-05 s⁻¹ | 1720 ± 260 µM | < 1e-05 s⁻¹ | < 1e-05 s⁻¹ | < 1e-05 s⁻¹ | – | –
G44C U47G G66U C67G | 0.000596 ± 0.00019 s⁻¹ | – | – | – | 0.000152 ± 5e-05 s⁻¹ | 0.000668 ± 0.00032 s⁻¹ | 0.000455 ± 0.00013 s⁻¹
A42U U47G | 3.95e-05 ± 1.3e-06 s⁻¹ | 6570 ± 510 µM | < 1e-05 s⁻¹ | – | – | – | 2.38e-05 ± 9e-06 s⁻¹
A42C U55A | 1.17e-05 ± 4.9e-06 s⁻¹ | – | – | – | – | – | –
G43U U54C | 6.24e-05 ± 1.8e-06 s⁻¹ | 7100 ± 410 µM | – | – | – | – | 3.65e-05 ± 1.6e-05 s⁻¹
A42C G60C | < 1e-05 s⁻¹ | – | < 1e-05 s⁻¹ | < 1e-05 s⁻¹ | < 1e-05 s⁻¹ | – | –
G44C C67G | 0.0216 ± 0.0034 s⁻¹ | 3930 ± 790 µM | 0.000211 ± 4.8e-05 s⁻¹ | 0.000995 ± 0.00033 s⁻¹ | 0.00316 ± 0.00083 s⁻¹ | 0.00752 ± 0.0019 s⁻¹ | 0.0168 ± 0.0047 s⁻¹
A42G C58G | 0.000303 ± 2.3e-05 s⁻¹ | 6970 ± 950 µM | – | – | – | 7.8e-05 ± 1.5e-05 s⁻¹ | 0.00018 ± 2.6e-05 s⁻¹
G44A A53G | 0.000575 ± 4.5e-05 s⁻¹ | 2460 ± 440 µM | – | – | 0.000116 ± 2.3e-05 s⁻¹ | 0.000319 ± 6.7e-05 s⁻¹ | 0.000456 ± 4.8e-05 s⁻¹

Variant | kcat (glucosamine-6-phosphate [1]) | KM (glucosamine-6-phosphate [2]) | self-cleavage kobs at 40 uM GlcN6P (glucosamine-6-phosphate [3]) | self-cleavage kobs at 160 uM GlcN6P (glucosamine-6-phosphate [4]) | self-cleavage kobs at 640 uM GlcN6P (glucosamine-6-phosphate [5]) | self-cleavage kobs at 2500 uM GlcN6P (glucosamine-6-phosphate [6]) | self-cleavage kobs at 10000 uM GlcN6P (glucosamine-6-phosphate [7])
G41U U49G | 3.94e-05 ± 6e-06 s⁻¹ | – | < 1e-05 s⁻¹ | – | – | – | 3.38e-05 ± 1e-05 s⁻¹
A42U U54C | 0.00019 ± 4.1e-05 s⁻¹ | – | – | – | 6.5e-05 ± 1.1e-05 s⁻¹ | 0.00024 ± 3.8e-05 s⁻¹ | 0.000159 ± 1.7e-05 s⁻¹
A42U U54G | 0.000246 ± 1e-05 s⁻¹ | 736 ± 110 µM | – | – | 0.000117 ± 2e-05 s⁻¹ | 0.000201 ± 3.1e-05 s⁻¹ | 0.000226 ± 2.1e-05 s⁻¹
A42U U54A | 0.000282 ± 2.2e-05 s⁻¹ | 1890 ± 340 µM | – | – | 6.94e-05 ± 9.8e-06 s⁻¹ | 0.000177 ± 2e-05 s⁻¹ | 0.000231 ± 2e-05 s⁻¹
A42U C50G | < 1e-05 s⁻¹ | – | < 1e-05 s⁻¹ | – | – | – | < 1e-05 s⁻¹
G44C G66U | < 1e-05 s⁻¹ | – | < 1e-05 s⁻¹ | < 1e-05 s⁻¹ | < 1e-05 s⁻¹ | – | < 1e-05 s⁻¹
A42C U57G | < 1e-05 s⁻¹ | – | < 1e-05 s⁻¹ | < 1e-05 s⁻¹ | – | – | –
G41A G66A | 0.0028 ± 0.0014 s⁻¹ | – | 6.67e-05 ± 1.2e-05 s⁻¹ | 0.000116 ± 3.7e-05 s⁻¹ | 0.000562 ± 8.6e-05 s⁻¹ | 0.000832 ± 0.00018 s⁻¹ | 0.0028 ± 0.00037 s⁻¹
G41U C71U | 0.000239 ± 3e-05 s⁻¹ | 885 ± 270 µM | 1.98e-05 ± 8.9e-06 s⁻¹ | 4.38e-05 ± 8.4e-06 s⁻¹ | 8.95e-05 ± 9.5e-06 s⁻¹ | 0.000227 ± 2.9e-05 s⁻¹ | 0.000214 ± 1.7e-05 s⁻¹
G40U C70A | 0.000457 ± 7.9e-05 s⁻¹ | 1360 ± 460 µM | – | 3.45e-05 ± 1.4e-05 s⁻¹ | 0.000149 ± 1.8e-05 s⁻¹ | 0.000434 ± 7.3e-05 s⁻¹ | 0.000372 ± 4.6e-05 s⁻¹
A42U U69C C71U | 0.00168 ± 0.0003 s⁻¹ | 700 ± 210 µM | 8.14e-05 ± 1.7e-05 s⁻¹ | – | 0.000956 ± 0.00016 s⁻¹ | 0.00156 ± 0.00038 s⁻¹ | 0.00136 ± 0.00028 s⁻¹
G41C C71A | 0.000115 ± 2e-05 s⁻¹ | – | – | – | 5.78e-05 ± 1.1e-05 s⁻¹ | 0.000181 ± 2.7e-05 s⁻¹ | 0.000103 ± 8.1e-06 s⁻¹
A42U G43U A52G | < 1e-05 s⁻¹ | – | – | – | – | < 1e-05 s⁻¹ | –
A42G U54C | 0.0476 ± 0.013 s⁻¹ | 3020 ± 1100 µM | 0.000795 ± 0.00016 s⁻¹ | 0.00208 ± 0.001 s⁻¹ | 0.0066 ± 0.0019 s⁻¹ | – | 0.0394 ± 0.008 s⁻¹
G40U U45C C70U | 0.000444 ± 6.4e-05 s⁻¹ | 1000 ± 370 µM | – | – | 0.000186 ± 3.9e-05 s⁻¹ | 0.00025 ± 8.8e-05 s⁻¹ | 0.000426 ± 7.7e-05 s⁻¹
G44C C68U | 8.31e-05 ± 1.5e-05 s⁻¹ | 5560 ± 1800 µM | < 1e-05 s⁻¹ | < 1e-05 s⁻¹ | – | 2.65e-05 ± 1.2e-05 s⁻¹ | –
